Source: the nanobody polyreactivity screen of Harvey et al. (2022)

Assay: yeast display, Sf9 membrane polyspecificity reagent, FACS + sequencing; frameworks hold sequencing errors
In short: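 A nanobody's polyreactivity label depends on the gate it was sorted from. Yeast display cells were stained with 10% biotinylated, detergent-solubilized Sf9 membrane reagent for 1 hour at 4 °C, enriched on streptavidin microbeads and sorted by FACS. The low and high (top ~1%) gates were set on anti-HA fluorescence for expression and streptavidin fluorescence for reagent binding.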

Sequence	polyreactivity (PSR sort gate)
QVQLVESGGGLVQAGGSLRLSCAASGRIFPDNAMGWYRQARGKERELVAAMTYSGGSTSYADSVKGRFTISRDNAKNTVYLQMNSLKPEDTAVYYCNKGGGTSYDYVRVDKYPGDYWGQGTQVTVSS	low polyreactivity
QVQLVESGGGLVQAGGSLRLSCAASGSTFWSYAMGWYRQAPGKERELVASISRRGGSTSYADSVKGRFTISRDNAKNTVYLQMNSLKPEDTAVYYCAARLLRTTKPRSGYGYWGQGTQVTVSS	high polyreactivity
QVQLRESGAGGRQPAPEMRGERQYFYWSADGLVSQGPGKEREFDAGIDRGTITNYADSVRGRFTISRDNAKNTVYLQMNSLKPEDTAVYYCAVPAYGDPRSYYWGQGTHVTVSS	high polyreactivity
QDQLVESGGGLVQEGRILRLISADSGRISRFNAMGWYRPAPGKERELVAAITRGASTYYADSVKGRFTISRDNAKNTVYLEMNSVKPEVTAVYYCAAAPSYSWTSVARYFYWGQGTQVPVSS	high polyreactivity
QVQLVESGGGLVQAGGSLRLSCAASGSTLVYYDMGWSRQAPGKERELVATITGTDSTYYADSVKGRFTISRDNAKNTVYLQMNSLKPEDTADCAADRAASRPDYDYWGQGTQVTVSS	low polyreactivity
QVQLVESGGGLVQAGGSLRLSCAASGFIFDYNAMGWYRQAPGKERELVAAISWSGSRTYYAVSVKGRFTISRDNAKNTVYLQMNSLKPEDTAVYYCAAEWSGEAAWQVGAEDDYWGQGTQVTVSS	low polyreactivity
QVQLVESGGGLVQAGGSLRLSCAASGSIFGYNVMGWYRQAPGKERDLVAAITYSGGSTYYADSVKGRFTISRDNAKNTVYLQMNSLKPEDTAVYYCAKVTGRRFPAYGYDHWGQGTQVTVSS	high polyreactivity
QVQLVESGGGLVQAGGSLRLSCAASGSIFADNAKGWYRQAPGKEMDLVAAITWSGGSTYYADSVKGRFTISRDNAKNTVYLQMNSLKPEDTAVYYCNADDAVEYSYGGGTEFYYWGQGTQVTVSS	low polyreactivity
QVQLVESGGGLVQAGGSLRLSCAASGSIFHDYAMGWYRQAAGKERELVAVISTSGGSTYYADSVKGRFTISRDNAKNTVYLQMNSLKPEDTAVYYCAADPFDGYSSSEYDYWGQGTQVTVSS	low polyreactivity
QVQLVESGGGLVQAGGSLRLSCAASGSTFPRYAMGWYRQAPGKERELVAAISGRGGSTYYADSVKGRFTISRDYAKNTVYLQMNSLKPEDTAVYYCNAYRRYYTMYYWGQGTQVTVSS	high polyreactivity
QVQLVESGGGLVQAGGSLRLSCAASGRTFEIYAMGWYRHAPGKERELVAAISSSGGSTYYADSVKGRFTISRDNAKNTVYLQMNSLKPEDTAVYYCAARYRATLTRTRVGYWGQGTQLTVSS	high polyreactivity
QVQLVESGGGLVQAGGSLRLSCAASGRTFWRNAMGWYRQAPGKERELVAAISSSGDRTYYADSVKGRFTISRDNAKNTVYLQMNSLKPEDTAVYYCAARTFWGAYDYWGQGTQVTVSS	high polyreactivity
QVQLVESGGGLVQAGGSLRLSCAASGFIFKRYGMGWYRQAPGKERELVAAISYSGGSTYYADSVKGRFTISRDNAKNTVYLQMNSLKPEDTAVYYCKATIHYNAGWTMGSWGQGTQVTVSS	high polyreactivity
QVQLVESGGGLVQAGGSLRLSCAASGITFSPSAMGWCRQAPGKERELVAAITSGGSTNYADSVKGRFTISRDNAKNTVYLQMNSLKPEDTAVYYCAAGRWPAPWYTRNYWGQGTQVTVSS	low polyreactivity
QVQLVESGGGLVQAGGSLRLSCAASGRIFNTYAMGWYRQAPGKERELVARITWSAGRTYYADSVKGRFTISRDNAKNTVYLQMNSLKPEDTAVYYCAAEGFYRSSPVRTYIGYDYWGQGTQVTVSS	high polyreactivity
QVQLVESGGGLVQAGGSLRLSCAASGSILRKYAMGWYRQAPGKERELVAAISGSGGRTHYADSVKGRFTISRDNAKNTVYLQMNSLKPEDTAVYYCARRIKLGQRQGGYYWGQGTQVTVSS	high polyreactivity
QVQLVESGGGLVQAGGSLRLSCAASGFTFRANGMGWYRQAPGKERELVATITSGGTTNYADSVKGRFTISRDNAKNSVYLQMNSLIPEDTAVYYCAKRFGPAYFRLYDYWGQGTQVTVSS	low polyreactivity
QVQLVESGGGLVQAGGSLRLSCAASGRTFSKYTMGWYRQATGKERELVAAIDRSGGSTYYADSVKGRFTISRDNAKNTVYLQMNSLKPEDTAVYYCAAVYYLVPGNYWGHGTQVTVSS	high polyreactivity
QVQLVESGGGLVQAGGSLRLSCAASGSISYLYAMGWYRQAPGKERELVAAISRSGASTYYADSVKGRFTISRDNAKNTVYLQMNSLKPEDTAVYYCAAYKIWGRVRYDYWGQGTQVTVSS	low polyreactivity
QVQLVESGGGLVQAGGSLRLSCAASGFIFGQYAMGWYRQAPGKERELVATINRSGGSTYYADSVKGRFTISRDNAKNTVYLQMNSLKPEDTAVYYCAKGPRISSSLRYSAYWKMNYWGQGTQVTVSS	high polyreactivity
QVQLVESGGGLVQAGGSLRLSCAASGNIFDYYAMGWYRQAPGKERELVAAISTGTSTYADSVKGRFTISRDNAKNTVYLQMNSLKPQDTAVYYCAADVGIRPLNYNPYNYWGQGTQVTVSS	low polyreactivity
QVQLVESAGGLVQAGGSLRLSCAASGYIFYFYAMGWYRQAPGKERELVAAITSVGSTKYADSVKGRFTISRDNAKNTVYLQMNSLKPEDTAVYYCAARSWSGYGLYNYWGHGTQVTVSS	high polyreactivity

Sequence	polyreactivity (PSR sort gate)
QVQLVESGGGLVQAGGSLRLSCAASGFTFGGNAMGWYRQAPGKERELVAAISGRGGRTFYADSVKGRFTISRDNAKNTVYLQMNSLKPEDTGVYYCAAYYRYDVGAYDYWGQGTQVTVSS	high polyreactivity
QVQLVESGGGLVQAGGSLRLSCAASGSIFKRNTMGWYRQAPGKERELVAAISASGGRTYYADSVKGRFTISRDNAKNTVYLQMNSLKPEDTAVYYCNARFRIGRSELDYWGQGTQVTVSS	low polyreactivity
QVQLVESGGGLVQAGGSLRLSCAASGSIFAWYAMGWYRQAPGKERELVAAISYRGGRTYYADSVKGRFTISRDNAKNTVYLQMNSLKPEDTAVYYCATDANRGYPSYDYWGQGTQVTVSS	high polyreactivity
QVQLVESGGGLVQAGGSLRLSCAASGRTFGGYAMGWYRQAPGKESELVARISRSGGSTYYADSVKGRFTISRDNAKNTVYLQMNSLKPEDTAVYYCNTGLRNAYGWPQDDYWGQGTQVTVSS	low polyreactivity
QVQLVESGGGLVQAGGSLRLSCAASGSIFPRYVMGWYRQAPGTARELVAAISGSGGSTYYADSVKGRFTISRDNAKNTVYLQMNSLKPEDTAVYYCNKLRRRVNRDIDDYWGQGTQVTVSS	high polyreactivity
QVQLVESGGGLVQAGGSLRLSCAASGLTFLVYAMGWYRQAPGKERELVAAITSIGDSTFYADSVKGRFTISRDNAKNTVYLQMNSLKPEDTAVYYCNADGPAGDNKFTLLDYDYWGQGTQVTVSS	low polyreactivity
QVQHVESGGGLVQAGGSLRLICAASGYIFRGYVMGWYRQAPGKERELVAAITSRGDSTYYADSVKGRFTISRDNAKNTVYLPMNSLKPEDTAVYYCAARGGVLKGYYYWGQGTQVTVSS	high polyreactivity
QVQLVESGGGLVQAGGSLRLSCAASGRTFSGYAMGWYRQAPGKEREFVAAISRSGGSTYYADSVKGRFTISRDNAKNTVYLQMNSLKPEDIAVYYCAAQIWYSKRLAYKAYDYWGQGTQVTVSS	high polyreactivity
QVQLVESGGGLVQAGGSLRLSSAASGSTFGPYAMGWYRQAPGKERELVAAISRRGTSTYYADSVKGRFTISRDNAKNTVYLQMNSLKPEDTAVYYCNAVTSSFFNRDSDYWGQGNQVTVSS	high polyreactivity
QVQLVESGGGLVQAGGSLRLSCAASGGTFNSNAMGWYRQAPGKERELVASITWRGGTYYADSVKGRFTISRDNAKNTVYLQMNSLKPEDTAVYYCAARGTIPGIHWIYYYWGQGTQVTVSS	high polyreactivity
QVQLVESGGGLVQAGGSLRLSCAASGSTLSFNAMGWYRQAPGKERELVAGITYSGASTYYADSVKGRFTISRDNAKNTVYLQMNSLKPEDTAVYYCAADSPYQIYYYWGQGTQVTVSS	low polyreactivity
QVQLVESWGGLVQAGGSLRLSCAASGSTFILYAMGGYRQAPGNERELVAAITSRGVSTYYADSVKGRFTISRDNAKNTVYLQMNSLKPEDTAVYNWAADQYQASYYYWGQGTQVTVSS	low polyreactivity
QVQLVESGGCLVQAGGSLRLSCAASGRIFIRYTMGWYRQAPGKERELVAAISKSGGRTYYADSVKGRFTISRDNAKNTDYLQMNSLKPEYTAVYDCNKDTDSQYSWGQGTQVTVSS	high polyreactivity
QVQLVESGGGLVQAGGSLRLSCAASGSIFYYKYSMGWYRQAPGKERELVAAITSTGGTTYYADSVKGRFTISRDNAKNTVYLQMNSLKPEDTAVYYCAALAPYIGGVDYDYWGQGTQVTVSS	low polyreactivity
QVQLVESGGGLVQAGGSLRLSCAASGSIFVTNAMGWYRQAPGKEREMVATITSSGSTNYADSVKGRFTISRDNAKNTVYLQMNSLKPEDTAVYYCAKRWLWYYWGFAPSDYWGQGTQVTVSS	low polyreactivity
QVQLVESGGGLVQAGGSHRLSCAASGRTFKLYAMGWYRQAPGKERELVAAITESGRSTYYADSVKGRFTFSRDNAKNTVYLQMNSLKPEDTAVYYCAALGIGSYRRYSGYDYWGQGTQVTVSS	low polyreactivity
QVQLVESGGGLVQAGGRLRLSCAASGSIFEGYVMGWYRQAPGKERELVAAITTGGGSTYYADSVKGRFTISRDNAKNTVYLQMNSLKPEDTAVYYCAKDGGRWGQGTQVTVSS	low polyreactivity
QVQLVESGGCLVQAGGSLRLSCAASGRNFGTYAMGWYRQATGKERELVAASTRGGTTYYADSVKGRFTISRDNAKNTVYLQMNSLTQEDTAVYYCATGPAIRYDYWGQGTQVTVSS	low polyreactivity
QVQLVESGGGLVQAGGSLRLSCASSGRTFRYYTMGWYRQAPGKEREFVAAISSTGGTYYADSVKGRFTISRDNAKNTVYFQMNSLIPVDTAVYYCAATFIKVVVNVQLYDYDYWGQGTQVTVSS	low polyreactivity
QVQLVESGGGLVQAGGSLRLICAASGSIFYRYTMGWYRQAPGKERELVAAISSRGGSTYYADSVKGRFTISRDNAKNTVYLQMNSLKPEYTAVYYCAARFSYWAPSKGYGYWGQGTQVTVSS	high polyreactivity
QVQLVESGGGLVQAGGSLRLSCAASGSTFVYNAMGWYRQAPGKERELVAGISSSGGRTYYADSVKGRFTISRDNAKNTVYLQMNSLKPEDTAVYYCNVVTYRRFDYWGQGTQVTVSS	low polyreactivity
